Source: doi:10.1101/844506v1

Substrate: O=[N+]([O-])c1ccc(O[C@@H]2O[C@H](CO)[C@@H](O)[C@H](O)[C@H]2O)cc1
Experiment: purified protein
Settings: no added glucose

B1: B8CYA8 (β-glucosidase from Halothermothrix orenii) (Halothermothrix orenii H 168) (protein)
chain: MAKIIFPEDFIWGAATSSYQIEGAFNEDGKGESIWDRFSHTPGKIENGDTGDIACDHYHLYREDIELMKEIGIRSYRFSTSWPRILPEGKGRVNQKGLDFYKRLVDNLLKANIRPMITLYHWDLPQALQDKGGWTNRDTAKYFAEYARLMFEEFNGLVDLWVTHNEPWVVAFEGHAFGNHAPGTKDFKTALQVAHHLLLSHGMAVDIFREEDLPGEIGITLNLTPAYPAGDSEKDVKAASLLDDYINAWFLSPVFKGSYPEELHHIYEQNLGAFTTQPGDMDIISRDIDFLGINYYSRMVVRHKPGDNLFNAEVVKMEDRPSTEMGWEIYPQGLYDILVRVNKEYTDKPLYITENGAAFDDKLTEEGKIHDEKRINYLGDHFKQAYKALKDGVPLRGYYVWSLMDNFEWAYGYSKRFGLIYVDYENGNRRFLKDSALWYREVIEKGQVEAN
B1 showed a Km of 1800 ± 100 µM and a kcat of 339.0 ± 28.3 s⁻¹.
